Like-named read-outs stand apart in the source and are kept apart here. Values belong to the molecule of their own block, whether it stands above or below them. Non-standard residues stand in square brackets, D forms with d. *: point of attachment. Phe(F5) = N[C@@H](Cc1c(F)c(F)c(F)c(F)c1F)C(=O)O; Desaminotyrosyl = O=C(CCc1ccc(O)cc1)*; Agmatine = N=C(N)NCCCCN*; Nle = CCCC[C@H](N)C(=O)O; Orn = NCCC[C@H](N)C(=O)O; Abu = CC[C@H](N)C(=O)O; Ava = NCCCCC(=O)O; GABA = NCCCC(=O)O
Legend:
[1] = biological target: T1, human GHRH receptor (human pituitary membrane homogenates) (human) (UniProt Q02643); test: radioligand competition vs 125I-JV-1-42 (0.2 nM), human pituitary membranes
T1 sequence (looked up): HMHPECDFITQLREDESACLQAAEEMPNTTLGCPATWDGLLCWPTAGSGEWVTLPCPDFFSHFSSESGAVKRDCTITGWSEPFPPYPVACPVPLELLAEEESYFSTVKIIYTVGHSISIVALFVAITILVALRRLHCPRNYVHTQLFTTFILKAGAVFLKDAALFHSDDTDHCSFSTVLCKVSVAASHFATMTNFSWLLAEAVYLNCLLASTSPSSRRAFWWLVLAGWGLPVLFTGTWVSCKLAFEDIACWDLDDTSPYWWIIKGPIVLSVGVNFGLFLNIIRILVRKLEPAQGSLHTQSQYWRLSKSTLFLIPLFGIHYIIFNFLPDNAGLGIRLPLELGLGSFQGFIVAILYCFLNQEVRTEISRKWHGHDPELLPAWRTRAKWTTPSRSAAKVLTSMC

[2] = biological target: T1, human GHRH receptor (human pituitary membrane homogenates) (human); test: as above; remark: listed apart in the source
[3] = biological target: T1, human GHRH receptor (human pituitary membrane homogenates) (human); test: radioligand competition vs [His1,125I-Tyr10,Nle27]hGHRH(1-32)NH2 (0.2 nM), human pituitary membranes
[4] = biological target: T2, human GHRH receptor (human pituitary membrane homogenates) (human, UniProt Q02643 23-423); test: radioligand competition vs 125I-JV-1-42 (0.2 nM), human pituitary membranes
T2 construct: whole, on cells; Native receptor in human pituitary membrane homogenates, not on intact cells; also called hGHRH receptor
T2 sequence (looked up): T1 sequence (looked up)
Text: (§1) Normal human pituitaries were purchased from the National Hormone and Peptide Program (A. F. Parlow, Los Angeles, County Harbor-UCLA Medical Center, Torrance, Calif.).

[5] = biological target: T2, human GHRH receptor (human pituitary …); test: as above; remark: listed apart in the source
Text: as §1

Molecule: P-20356 [N-Me-Tyr^1, Gln^8, Orn^12, Abu^15, Orn^21, Nle^27, Asp^28, Agm^29]hGHRH(1-29)NH2 (peptide)
Relative affinity (Binding potency) vs GHRH [1]: 406 fold
Relative affinity (Binding potency) vs JI-38 [1]: 171 fold
Relative affinity (Binding potency) vs JI-38 [2]: 16.1 fold

Molecule: JI-38 (peptide)
Relative affinity (Binding potency) vs GHRH [1]: 2.4 fold
Relative affinity (Binding potency) vs JI-38 [1]: 1 fold
Relative affinity (Binding potency) vs GHRH [3]: 3.03 fold
Relative affinity (Binding potency) vs JI-38 [3]: 1 fold

Molecule: JI-34 (peptide)
Relative affinity (Binding potency) vs GHRH [3]: 4.32 fold

B1: P-25502 [Dat^1, D-Ala^2, Fpa5^6, Orn^12, Abu^15, Orn^21, Nle^27, Gab^30]hGHRH(1-30)NH2 (peptide)
peptide: [Desaminotyrosyl][dA]DAI[Phe(F5)]TNSYR[Orn]VL[Abu]QLSAR[Orn]LLQDI[Nle]SR[GABA]-NH2
SMILES: CCCC[C@H](NC(=O)[C@@H](NC(=O)[C@H](CC(=O)O)NC(=O)[C@H](CCC(N)=O)NC(=O)[C@H](CC(C)C)NC(=O)[C@H](CC(C)C)NC(=O)[C@H](CCCN)NC(=O)[C@H](CCCNC(=N)N)NC(=O)[C@H](C)NC(=O)[C@H](CO)NC(=O)[C@H](CC(C)C)NC(=O)[C@H](CCC(N)=O)NC(=O)[C@H](CC)NC(=O)[C@H](CC(C)C)NC(=O)[C@@H](NC(=O)[C@H](CCCN)NC(=O)[C@H](CCCNC(=N)N)NC(=O)[C@H](Cc1ccc(O)cc1)NC(=O)[C@H](CO)NC(=O)[C@H](CC(N)=O)NC(=O)[C@@H](NC(=O)[C@H](Cc1c(F)c(F)c(F)c(F)c1F)NC(=O)[C@@H](NC(=O)[C@H](C)NC(=O)[C@H](CC(=O)O)NC(=O)[C@@H](C)NC(=O)CCc1ccc(O)cc1)[C@@H](C)CC)[C@@H](C)O)C(C)C)[C@@H](C)CC)C(=O)N[C@@H](CO)C(=O)N[C@@H](CCCNC(=N)N)C(=O)NCCCC(N)=O
notes: also called Peptide 25502; MR-502
Relative affinity (Binding potency) vs GHRH [4]: 58 fold
Relative affinity (Binding potency) vs JI-38 [4]: 24.4 fold
Relative affinity (Binding potency) vs JI-38 [5]: 13.2 fold

B3: P-20350 [Dat^1, D-Ala^2, Gln^8, Orn^12, Abu^15, Orn^21, Nle^27, Asp^28, Agm^29]hGHRH(1-29)NH2 (peptide)
peptide: [Desaminotyrosyl][dA]DAIFTQSYR[Orn]VL[Abu]QLSAR[Orn]LLQDI[Nle]D[Agmatine]
SMILES: CCCC[C@H](NC(=O)[C@@H](NC(=O)[C@H](CC(=O)O)NC(=O)[C@H](CCC(N)=O)NC(=O)[C@H](CC(C)C)NC(=O)[C@H](CC(C)C)NC(=O)[C@H](CCCN)NC(=O)[C@H](CCCNC(=N)N)NC(=O)[C@H](C)NC(=O)[C@H](CO)NC(=O)[C@H](CC(C)C)NC(=O)[C@H](CCC(N)=O)NC(=O)[C@H](CC)NC(=O)[C@H](CC(C)C)NC(=O)[C@@H](NC(=O)[C@H](CCCN)NC(=O)[C@H](CCCNC(=N)N)NC(=O)[C@H](Cc1ccc(O)cc1)NC(=O)[C@H](CO)NC(=O)[C@H](CCC(N)=O)NC(=O)[C@@H](NC(=O)[C@H](Cc1ccccc1)NC(=O)[C@@H](NC(=O)[C@H](C)NC(=O)[C@H](CC(=O)O)NC(=O)[C@@H](C)NC(=O)CCc1ccc(O)cc1)[C@@H](C)CC)[C@@H](C)O)C(C)C)[C@@H](C)CC)C(=O)N[C@@H](CC(=O)O)C(=O)NCCCCNC(=N)N
notes: also called Peptide 20350
Relative affinity (Binding potency) vs GHRH [4]: 102 fold
Relative affinity (Binding potency) vs JI-38 [4]: 42.7 fold
Relative affinity (Binding potency) vs JI-38 [5]: 8.37 fold

Results, then the molecule that gave them:

Relative affinity (Binding potency) vs GHRH [3]: 3.25 fold
Molecule: JI-36 (peptide)

Relative affinity (Binding potency) vs JI-38 [2]: 2.18 fold
B2: P-22327 [Dat^1, Gln^8, Orn^12, Abu^15, Orn^21, Nle^27, Asp^28, Apa^30]hGHRH(1-30)NH2 (peptide, from a related filing)
peptide: [Desaminotyrosyl]ADAIFTQSYR[Orn]VL[Abu]QLSAR[Orn]LLQDI[Nle]DR[Ava]-NH2
SMILES: CCCC[C@H](NC(=O)[C@@H](NC(=O)[C@H](CC(=O)O)NC(=O)[C@H](CCC(N)=O)NC(=O)[C@H](CC(C)C)NC(=O)[C@H](CC(C)C)NC(=O)[C@H](CCCN)NC(=O)[C@H](CCCNC(=N)N)NC(=O)[C@H](C)NC(=O)[C@H](CO)NC(=O)[C@H](CC(C)C)NC(=O)[C@H](CCC(N)=O)NC(=O)[C@H](CC)NC(=O)[C@H](CC(C)C)NC(=O)[C@@H](NC(=O)[C@H](CCCN)NC(=O)[C@H](CCCNC(=N)N)NC(=O)[C@H](Cc1ccc(O)cc1)NC(=O)[C@H](CO)NC(=O)[C@H](CCC(N)=O)NC(=O)[C@@H](NC(=O)[C@H](Cc1ccccc1)NC(=O)[C@@H](NC(=O)[C@H](C)NC(=O)[C@H](CC(=O)O)NC(=O)[C@H](C)NC(=O)CCc1ccc(O)cc1)[C@@H](C)CC)[C@@H](C)O)C(C)C)[C@@H](C)CC)C(=O)N[C@@H](CC(=O)O)C(=O)N[C@@H](CCCNC(=N)N)C(=O)NCCCCC(N)=O

Reference: patent publication US20140193378A1 (UNIVERSITY OF MIAMI, published 2014)
